According to the nanobody polyreactivity screen of Harvey et al. (2022):

Assay: yeast display, Sf9 membrane polyspecificity reagent, FACS + sequencing; frameworks hold sequencing errors
Method in brief: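 In a synthetic yeast display library (Saccharomyces cerevisiae BJ5465), nanobody expression was induced with galactose for 36–48 hours. FACS gates were set low and high (top ~1%) using anti-HA fluorescence for expression and streptavidin fluorescence for binding of the Sf9 membrane reagent. Each polyreactivity label is drawn from the gate of origin.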

Sequence | polyreactivity (PSR sort gate)
QVQHVESGGRLVQAGGSLRLICAASGRTFAPYAMGWYRQAPGKVRELVARITWSGTDTYYADSVKGRFTISRDNAKNTVYLQMNSLKPEDTAVYYCAADARYSRRYYYWGEGTQVTVSS | low polyreactivity
QVQHVESGRGLVQAGCSLPLSCAASGFTFLAYAMGWYRQAPGKETELVAAISRSGGRTYYADSVKWRFTISRDNAKNTVYLQMNSLKPEDTAVYYCAKRVLTHPGDDYWGQGAQVTVSS | high polyreactivity
QVQHVESGRGLVQAGGSLRLSCAASGSIQGGNARGCSSQAPGKESELVAAITFSGGGTYYADSVKGRLTISRDNAKNTVYLQMNSVKPEDTAVYYCAADIDGYTYEFDYWGQGTQVTVYS | low polyreactivity
QVQHVESGRGLVQAGVSLRLSCAASGIFFGAYAMGWYRQAPGKEREFVAAISRSGGSTYYADSVKGRFTISRDYAKNTVYFQKNSLKPEDSAVYYCNALAKYHYYLGQGTQVTVSS | high polyreactivity
QVQHVESGVGLVQAVGSLRLSCAASGLTFKYYAMGWYRQAAVKEWELVARLSRTGGSTNYADSVKGRFTISRDNAKNTLYLQMNSLKPEDTAVSYCNTQFSYSSAPPFWYTKMYYWGQGTQVTVSS | high polyreactivity
QVQHVESRGGLVQAGGSLRLRCAASGRIFSHYAMGWYRQAPGKERELVAAITSDGSTNYADSVKGRFTISRDNAKNTVYLQMNSLKPEDTAVYYCAKYVHIPYYYYLFGSYDYWGQGSQVTVSS | low polyreactivity
QVQHVESRGGLVQAGGSLRLSCAASGIIFSRNAMGWSRKAPGKERELLSGITSSGGTTYYADSVKGRFTISRDNAKNTVYLQMNSLKAEDTAVYYCAAYSTQNYSYRRYYYWGQGTQVTVSS | high polyreactivity
QVQHVESRGGLVQAGGSLRLSCAASGLIFTCNAMGWYRQAPGKERELVAAISTGGSTSYADSVKGRFTIARDNAKNTVYLQMNSLKPEDTAVYYCARDSSIWSHGSWYDYWGQGTQVTVSS | low polyreactivity
QVQHVESRGGLVQAGGSLRLSCAASGRTFFNNVMGWYRQAPGKERELVAAISKSGTRTYYADSVKGRFTISRDNAKNTVYLQMNSLKPEDTAVYYCATGQYLRTSRYYYWGQGTQVTVSS | high polyreactivity
QVQHVESRGGLVQAGGSLRLSCAASGRTFFWYAMGWYRQAPGKERELVADISSSGGSTYYADSVKGRFTISRDNAKNTVYLQMNSLKPEDTAVYYCAALSPWWRGGYNYWGQGTQVTVSS | high polyreactivity
QVQHVESRGGLVQAGGSLRLSCAASGSIFGYYGMGWYRQAPGKERELVATITSGGSTNYADSVKGRFTISRDNAKNTVYLQMNSLKPEDTAVYYCARQYGYQPERYGYWGQGTQVTVSS | low polyreactivity
QVQHVESRGGLVQAGGSLRLSCAASGSTIISNAQGWYRLAPGKERELVASIRSSGSTNYADSVKGRFTISRDNAKNTVYLKMNSLKPEDTAVYYCAAGSYWVQFQYDYWGQGTQVTVSS | low polyreactivity
QVQHVESVGGLVQAGGSLRLSCAASGSIFFWYDMGWYRQAPGKERELVASISSGGSTYYADSVKGRFTISRDNAKNTVYLQMNSLKPEDNAVYYCNAKSWSPAKSFSFFRFDYWGQGTQVTVSS | low polyreactivity
QVQHVESVGGLVQAGGSLRLSCASSGRTLFYYTMRWYRQARGTERELVAAISSGDSTNYADSVKGRFTISRDNAKNTVYLHMNSLKPEDTAVYYCAARFYQIRRRYDYWGQGTQVTVSS | low polyreactivity
QVQHVQSGGGLVQAGGSLPLSCDASASIFKYYTMGWYRQAPGKERELVATINFSGASTYYADSVKGRFTISRDNAKNTVYLQINSLKPEDTAVYYCAAVSSSTYRYYYWGQGTQVTVSS | high polyreactivity
QVQIEESGGGLVQAGGSLRLSCAASGFIFVWYAMGWYRQAPGKERELVAAISRDGDTNYADSVKGRFTISRDNAKNTVYLQMNSLKPEDTAVDYCARTYIYSGRIYNYGYWGQGTQVTVSS | high polyreactivity
QVQIEESGGGLVQAGGSLRLSCAASGNIFPGNDMGWYRQAPRKERELVAAITSRDGSTYYADSVKGRFTISRDNAKNTVYLQMNSLKPEDTAVYYCNTDPDLYYLATAGYWSHDYWGQGTQVTVSS | low polyreactivity
QVQIEESGGGLVQAGGSLRLSCAASGSIFVVYALGWYRPAPGKERELVAGISRNGGRTYYADSVKGRFTISRDNAKITVYLQMNILKPEDTAVYYCNAYRPSRHDYWGQGTQVTVSS | high polyreactivity
QVQIEESGGGLVQAGGSLRLTCAASGRIFYLNAMGWYRQAPGKERELVAGITNSTTGTYYADSVKGRFTISRDNAKNSVYLQMNSLKPEDTAVFYCNTDVAYEEPVETYDYWGQGTQVTVSS | low polyreactivity
QVQIGESGGGLVQAGGSLRLSCAACGFIFYRYAMGWYRQAPGKERELVAAISWSGGTTYYADSVKGRFTISRDNAKNTDYLQMNSLKPEDTAVYYCNARYPRSSPFGYWGQGTQVTVSS | high polyreactivity
QVQILESGGGLVKAGGSLRLSCAASGYTFYANAMGWYRKAPGKEREFVASITWSGGSTYYADSVKGRFTISRDNAKNTVYLQMNSLKPEDTAVDYCAADVIGDLRWYRDEYLGQGTQVTVSS | low polyreactivity

Sequence | polyreactivity (PSR sort gate)
QVQIVDSCGGLVQSGGSLRLSCDASGSTFLTNSMGWYRQAPGKERELVAAITLRGGRTYYADSVKGRFTISRDNALNTVYLQMNSLKPEDSAVYYCNARNYYYPSDRDYWGQGTQVTVSS | low polyreactivity
QVQIVDSGGGLVQAVGSLRLSCAASGSIIKKYAMGWYRQAPGKERELVAAISSTCGSTKYADSVKGRFTISRDNAKNTVYLQMNSLKAEDTAVYYCAVRYKWPYDYWGQGTQVTVSS | high polyreactivity
QVQIVESGGALVQAGCSLRLSCAASGSTFWYYVMGWYRQAPGKERELVAAISIVGSTYYADSVKGRFTLSRDNAKNTVYLQMNSLKPEDTAVYYCAADIYQYGYDYWGQGTQVTVSS | low polyreactivity
QVQIVESGGALVQAGGSLRFSCAASGSIFFSNTRGWYRQAPGKEREFVAAITWSTGNTYYADSVKGRFTISRDNAKNTVYLQMNSLKPEDTAVYYCYAEYLVITWYGGVEFDYWGQGTQVTVSS | low polyreactivity
QVQIVESGGGLDQAGGSLRLSCAASGRTFVSNDMGRYRQAPGKERELVATISSGASTYYADSVKGRFTISRDNAKTTVYLQMISLKPEDNAVYYCAAEDLVFGGGYDYWGQGTQVNVSS | low polyreactivity
QVQIVESGGGLDQAGGSLRLSCAATGSTFYWNAMGWYRQAPWKERELVAAISSGGSTYYADSVKGRFTISRDNAKNTVYVQMNSLKPEDTAVYYCAAEWYPYPWGYGYWGQGTQVTVSS | low polyreactivity
QVQIVESGGGLFQAGGSIRLSCSASGFTFAFYSMGWYRQAPGKERQLVAAISWSGGSTYYADSVKWRFTISRDNAKNTVYLQMNSLKPEDNAVYYCNTDRGPIGDHYDYWGQGTQVTVSS | high polyreactivity
QVQIVESGGGLFQAGGSRRLSCAASGVMFSYYAMGWYRQAPGKDRELVAAISRRVGSTYYADSVKGRFTISRDNAKNTVYLQMNSLITQVTAVYYWNAYLYSRYEFDYWVQGTQVTVSS | high polyreactivity
QVQIVESGGGLLQAGGSLRLSCAASGSTFERYAMGWYRQAPWKERELVAAIDSSGGTTYYADSVKGRFTISRDNAKNTDYLQMNSLKPEDTAVYYCAADPGYYSVAYDYWGQGTQVTVSA | low polyreactivity
QVQIVESGGGLVHAGGSLRLSCAASGRIFPDYAMGWYRQAPGKERELVATISYSGGNTNYADSVKGRFTISRDNAKNTVYLQMNSLKPEDTAVYYCNTDWYLPRYVLLGYFSGTEDYWGQGTQVTVSS | low polyreactivity
QVQIVESGGGLVQAAGSLRLTFAASGIIFYIYPMGWYRPAPGKERELVASISFSGTSTYYADSVKGRFTISRDNAKNTVYIQMHSLKPEDTAVYYCAAGARWRRALAVKPYQKYGYWGQGTQVTVSS | low polyreactivity
QVQIVESGGGLVQAGCSLRLSCAASGSTFLSNAMGLYRQAPGKERELVATNSFSRATYADSVKGRFTISRDNAKNTVYLQMNSLKPVDTAVYYCNRATINFSGKGDTAYDYWGQGTQVTVSS | low polyreactivity
QVQIVESGGGLVQAGGSHRLSCAATGLTFKYYAMGWYIQAPGKERELVAAISRSGGSTYYADSVKGRFTISRDNAKNTVYLQKNSLKPEDTAVYYCNARAGRYYSVYYPGDYWGQGTQVTVSS | high polyreactivity
QVQIVESGGGLVQAGGSIRLSCAASGTTFNLYAMGWYRQAPGKERQLVAVISWSGGSTYYADSVKGRFTISRDNAKNTVYLQMNSLKPEDTAVYYCAAEYYQWLYPYNEYDYWGQGTQVTVSS | high polyreactivity
QVQIVESGGGLVQAGGSLRISCAASGRTIHLYDMGWYRQAPGKERELVAAITWSSGRTYYADSVKGRVTISRDNAKNTVYVQMNILKPEDTEVYYCAADVWGGLLPGYDYWGQGTQVTVSS | high polyreactivity
QVQIVESGGGLVQAGGSLRISCAASGYIFLPYAMGWYRQAPGKERELVADITSVGRTYYADSVKGRFTISRDNEKNTVYLQMNSLKPEDTAVYYCAKRHSLGYGRSRYSSGYDYWGQGTQVTVSS | high polyreactivity
QVQIVESGGGLVQAGGSLRLSCAASGFIFPANAMGWYRQAPGKEREFVAVISYSGGRTYYADSVKGRFTISRDNAKNTVYLQMNSLKPEDTSVYYCNVVRVATWGYDYWGQGSQVTVSS | low polyreactivity
QVQIVESGGGLVQAGGSLRLSCAASGFIFQAYAMGWYRQAPGKERELVAAISSTSGRTYYADSVKGRFTISRDNAKNTVYLQMNSLKPEDTAVYYCARAVSSRNSGEYHYWGQGTQVTVSS | high polyreactivity
QVQIVESGGGLVQAGGSLRLSCAASGFIFRRNAMGWYRQAPGKERELVATIRASGGRTYYADSVKGRFTISRDNAKNTVYLQRNSLKPEDTAVYYCNAGKAPYLRYDYWGQGTEVTVSS | high polyreactivity
QVQIVESGGGLVQAGGSLRLSCAASGFIFYYYDMGWYRQAPWKERELVAVLTESGSSTYYADSVKGRFTITRDNAKNNVYLQMNSLKPEDTAVYYCAADGRASVGGLGDDYWGQGTQVTVSS | low polyreactivity
